Patent US20110039801A1

Molecular target: human NK1 receptor (transiently expressed in HEK293 cells) (human) (UniProt P25103)
Experiment: cell-based or functional assay

Chain of UniProt P25103 (P25103 whole entry): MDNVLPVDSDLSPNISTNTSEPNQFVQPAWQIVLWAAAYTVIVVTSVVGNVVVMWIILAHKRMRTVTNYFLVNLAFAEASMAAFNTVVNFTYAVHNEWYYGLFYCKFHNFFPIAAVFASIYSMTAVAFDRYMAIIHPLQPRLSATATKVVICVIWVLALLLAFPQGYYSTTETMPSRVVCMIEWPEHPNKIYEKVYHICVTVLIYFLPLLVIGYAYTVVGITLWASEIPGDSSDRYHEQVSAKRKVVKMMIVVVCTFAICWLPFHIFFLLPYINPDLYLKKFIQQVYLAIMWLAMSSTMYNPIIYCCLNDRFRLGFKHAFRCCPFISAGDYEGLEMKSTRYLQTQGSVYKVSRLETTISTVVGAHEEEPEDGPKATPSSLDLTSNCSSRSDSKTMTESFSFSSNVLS

NK1 receptor antagonistic activity (calcium imaging, inhibition of the substance P (100 µM) induced rise in fluorescence): 65%
Sequence: SPANTIDE II (peptidic analog of substance P) (peptide)
